± gives the uncertainty stated by the source.
Assay: self-splicing fitness, log relative to wild type (ln ratio); higher = more splicing; Tetrahymena group I intron in knt gene, E. coli kanamycin selection, DiMSum; sequences stand for … in CUCUCU…GGAGGGAAAAGUUAUCAGGCAUGCACCUGGUAGCUAGUCUUUAAACCAAUAGAUUGCAUCGGUUUAAAAGGCAAGACCGUCAAAUUGCGGGAAAGGGGUCAACAGCCGUUCAGUACCAAGUCUCAGGGGAAACUUUGAGAUGGCCUUGCAAAGGGUAUGGUAAUAAGCUGACGGACAUGGUCCUAACCACGCAGCCAAGUCCUAAGUCAACAGAUCUUCUGUUGAUAUGGAUGCAGUUCACAGACUAAAUGUCGGUCGGGGAAGAUGUAUUCUUCUCAUAAGAUAUAGUCGGACCUCUCCUUAAUGGGAGCUAGCGGAUGAAGUGAUGCAACACUGGAGCCGCUGGGAACUAAUUUGUAUGCGAAAGUAUAUUGAUUAGUUUUGGAGUACUCGUGGUCG
Method in brief: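 Pooled colonies went to amplicon sequencing on an Illumina HiSeq 2500 after six replicate transformations. The plates were LB agar with 100 μg/mL carbenicillin, 50 μM IPTG and 0.2% rhamnose, with or without 25 μg/mL kanamycin, incubated overnight at 37°C or 30°C. The E. coli BL21(DE3) library had all eight P1ex-region intron nucleotides randomised, the intron placed in the knt kanamycin-resistance gene on pET-22b(+). DiMSum fitness is the error-weighted combination of replicate fold changes, kanamycin against none, normalised to wild type.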

Row | Sequence | self-splicing fitness (ln) (30 °C) | self-splicing fitness (ln) (37 °C)
1 | ACCCAGCAAUAUUACGAAUA | -2.29 ± 0.14 | -1.19 ± 0.12
2 | ACCCAGCAAUAUUACGACUU | 0.148 ± 0.042 | 0.908 ± 0.062
3 | ACCCAGCAAUAUUACGAGCC | -3.18 ± 0.15 | -1.54 ± 0.14
4 | ACCCAGCAAUAUUACGAUGU | -0.18 ± 0.041 | -0.0583 ± 0.052
5 | ACCCAGCAAUAUUACGCAAA | -1.21 ± 0.065 | -0.816 ± 0.068
6 | ACCCAGCAAUAUUACGCACA | -1.56 ± 0.081 | -0.306 ± 0.11
7 | ACCCAGCAAUAUUACGCACC | -1.17 ± 0.1 | -0.52 ± 0.16
8 | ACCCAGCAAUAUUACGCGCU | -1.91 ± 0.097 | -1.36 ± 0.11
9 | ACCCAGCAAUAUUACGGCAA | -0.219 ± 0.056 | -0.263 ± 0.068
10 | ACCCAGCAAUAUUACGGCAG | -3.84 ± 0.21 | -2.74 ± 0.18
11 | ACCCAGCAAUAUUACGGGGG | -3.46 ± 0.17 | -2.43 ± 0.15
12 | ACCCAGCAAUAUUACGGGUA | -2.54 ± 0.11 | -1.66 ± 0.084
13 | ACCCAGCAAUAUUACGGUAA | -1.26 ± 0.09 | -0.477 ± 0.087
14 | ACCCAGCAAUAUUACGUAUA | -2.2 ± 0.092 | -1.2 ± 0.085
15 | ACCCAGCAAUAUUACGUGCA | -0.703 ± 0.067 | -0.601 ± 0.072
16 | ACCGAGCAAUAUUACGAAAU | -2.68 ± 0.27 | -2.76 ± 0.34
17 | ACCGAGCAAUAUUACGACAG | -2.88 ± 0.17 | -2.41 ± 0.39
18 | ACCGAGCAAUAUUACGAGAA | – | -1.8 ± 0.29
19 | ACCGAGCAAUAUUACGAUUG | -3.69 ± 0.17 | -2.02 ± 0.18

Row | Sequence | self-splicing fitness (ln) (30 °C) | self-splicing fitness (ln) (37 °C)
20 | ACCGAGCAAUAUUACGCCAU | -4.46 ± 0.36 | -2.05 ± 0.22
21 | ACCGAGCAAUAUUACGCCUG | -3.61 ± 0.24 | -2.44 ± 0.17
22 | ACCGAGCAAUAUUACGCUCU | -0.43 ± 0.14 | -1.25 ± 0.16
23 | ACCGAGCAAUAUUACGCUUG | -3.65 ± 0.21 | -2.17 ± 0.26
24 | ACCGAGCAAUAUUACGGAAC | -3.03 ± 0.29 | -1.63 ± 0.21
25 | ACCGAGCAAUAUUACGGGAC | -2.88 ± 0.13 | -2.49 ± 0.18
26 | ACCGAGCAAUAUUACGGGCU | -3.3 ± 0.16 | -2.59 ± 0.19
27 | ACCGAGCAAUAUUACGGGGA | -1.87 ± 0.1 | -1.65 ± 0.1
28 | ACCGAGCAAUAUUACGGGGG | -3.8 ± 0.18 | -3.18 ± 0.2
29 | ACCGAGCAAUAUUACGGGGU | -3.7 ± 0.17 | -2.46 ± 0.17
30 | ACCGAGCAAUAUUACGGUAU | -3.76 ± 0.2 | -1.81 ± 0.14
31 | ACCGAGCAAUAUUACGUAGC | -3.46 ± 0.16 | -1.61 ± 0.15
32 | ACCGAGCAAUAUUACGUUCC | -2.7 ± 0.26 | -1.66 ± 0.23
33 | ACCGAGCAAUAUUACGUUUA | -3.4 ± 0.27 | -2.39 ± 0.18
34 | ACCUAGCAAUAUUACGAAGA | -2.01 ± 0.19 | -1.77 ± 0.13
35 | ACCUAGCAAUAUUACGACAG | -2 ± 0.089 | -1.34 ± 0.12
36 | ACCUAGCAAUAUUACGACGG | -1.3 ± 0.089 | -0.541 ± 0.14
37 | ACCUAGCAAUAUUACGAUAC | -3.47 ± 0.25 | -1.65 ± 0.2

From the supplement of paper PMC7877785
